Four proteins from PMC4824898, “Characterisation of Schizosaccharomyces pombe α-actinin” (PeerJ, 2016) can be followed below.

Like-named read-outs stand apart in the source and are kept apart here.

Data set [1] concerns the molecule itself. The experiment in a line: SEC; gel filtration on Superdex 200 10/300GL in 50 mM Tris-HCl, pH 7.6, 200 mM KCl (also Sephacryl S-400HR in 25 mM sodium phosphate, pH 7.6, 150 mM NaCl); elution compared with reference proteins; dimer formation judged from apparent size.
Data set [2] deals with the molecule itself. The description is as above. The source holds these as a separate data set.

B1: ROD-EF of S. pombe α-actinin (domain or fragment, Schizosaccharomyces pombe, UniProt O13728 228-621, looked up)
chain: AFSTLDKVETAARRVERFTEVLMSTHDMKIDYESRMKRLLGSIARMQEYWHTVQFENNYTDVKSHSNNFAKFKATEKREWVKEKIDLESLLGTIQTNLKTYQLRKYEPPAGLKIVDLERQWKDFLSEEANQSKLINTHMREIKESMRIAFADRANSFSKMLSTISNEITNLQGDWRDQLDHVEFLQEHLGPLEVELASVKVLYDNCFQAGIEENDYTMFSYEDLEHEFGITANIIANKIKYLENELLEREKRTLSKQELDGITKVFRHFEKKKSNMLNEVEFYAALASLGLVYDTEEGTALFHRAANSEEGVTYERFTEIVMEELEDRDSARQVLYAFCDVADGKSYVTSDDLLRSQVRPNIVKFLECNMNKHSEGLDYLTWIKQLLAEDKEIV
notes: 396 residues in all; also called pTEV-SP-ROD-EF; source: E. coli BL21(DE3), purified (nickel chelating column, TEV cleavage, ion exchange when necessary); not shown: 10xHis, N-terminal, cleaved
On to B1, for which, in data set [1], the binding result is “binds”.

B2: ABD-ROD of S. pombe α-actinin (domain or fragment, Schizosaccharomyces pombe, UniProt O13728 1-483, looked up)
chain: MQANQWQSVQNRTFTKWFNTKLSSRDLPSVFDLRKDLSDGILLIQLLEIIGDENLGRYNRNPRMRVHRLENVNKALEYIKSKGMPLTNIGPADIVDGNLKLILGLIWTLILRFTIADINEEGLTAKEGLLLWCQRKTANYHPEVDVQDFTRSWTNGLAFCALIHQHRPDLLDYNKLDKKNHRANMQLAFDIAQKSIGIPRLIEVEDVCDVDRPDERSIMTYVAEYFHAFSTLDKVETAARRVERFTEVLMSTHDMKIDYESRMKRLLGSIARMQEYWHTVQFENNYTDVKSHSNNFAKFKATEKREWVKEKIDLESLLGTIQTNLKTYQLRKYEPPAGLKIVDLERQWKDFLSEEANQSKLINTHMREIKESMRIAFADRANSFSKMLSTISNEITNLQGDWRDQLDHVEFLQEHLGPLEVELASVKVLYDNCFQAGIEENDYTMFSYEDLEHEFGITANIIANKIKYLENELLEREKRTLSK
notes: 485 residues in all; also called pTEV-SP-ABD-ROD; source: E. coli BL21(DE3), purified (nickel chelating column, TEV cleavage, ion exchange when necessary); not shown: 10xHis, N-terminal, cleaved
Consider B2, for which the binding result in data set [1] is “binds”.

B3: rod domain (ROD) of S. pombe α-actinin (domain or fragment, Schizosaccharomyces pombe, UniProt O13728 228-483, looked up)
chain: AFSTLDKVETAARRVERFTEVLMSTHDMKIDYESRMKRLLGSIARMQEYWHTVQFENNYTDVKSHSNNFAKFKATEKREWVKEKIDLESLLGTIQTNLKTYQLRKYEPPAGLKIVDLERQWKDFLSEEANQSKLINTHMREIKESMRIAFADRANSFSKMLSTISNEITNLQGDWRDQLDHVEFLQEHLGPLEVELASVKVLYDNCFQAGIEENDYTMFSYEDLEHEFGITANIIANKIKYLENELLEREKRTLSK
notes: alpha-actinin of Schizosaccharomyces pombe, rod domain with two putative spectrin repeats, nucleotides 682-1449, residues 228-483; 258 residues in all; also called pTEV-SP-ROD; source: E. coli BL21(DE3), purified (nickel chelating column, TEV cleavage, ion exchange when necessary); not shown: 10xHis, N-terminal, cleaved
Consider B3, for which the binding result in data set [1] is on record as “binds”.

B4: full-length S. pombe α-actinin (natural protein, Schizosaccharomyces pombe, UniProt O13728 1-621, looked up)
chain: MQANQWQSVQNRTFTKWFNTKLSSRDLPSVFDLRKDLSDGILLIQLLEIIGDENLGRYNRNPRMRVHRLENVNKALEYIKSKGMPLTNIGPADIVDGNLKLILGLIWTLILRFTIADINEEGLTAKEGLLLWCQRKTANYHPEVDVQDFTRSWTNGLAFCALIHQHRPDLLDYNKLDKKNHRANMQLAFDIAQKSIGIPRLIEVEDVCDVDRPDERSIMTYVAEYFHAFSTLDKVETAARRVERFTEVLMSTHDMKIDYESRMKRLLGSIARMQEYWHTVQFENNYTDVKSHSNNFAKFKATEKREWVKEKIDLESLLGTIQTNLKTYQLRKYEPPAGLKIVDLERQWKDFLSEEANQSKLINTHMREIKESMRIAFADRANSFSKMLSTISNEITNLQGDWRDQLDHVEFLQEHLGPLEVELASVKVLYDNCFQAGIEENDYTMFSYEDLEHEFGITANIIANKIKYLENELLEREKRTLSKQELDGITKVFRHFEKKKSNMLNEVEFYAALASLGLVYDTEEGTALFHRAANSEEGVTYERFTEIVMEELEDRDSARQVLYAFCDVADGKSYVTSDDLLRSQVRPNIVKFLECNMNKHSEGLDYLTWIKQLLAEDKEIV
notes: also called full length α-actinin; pTEV-SP; source: E. coli BL21(DE3), purified (nickel chelating column, TEV cleavage, ion exchange when necessary); not shown: 10xHis, N-terminal, cleaved
For the protein B4, the binding result in data set [2] is reported as “binds”.
